Laboratory results reported in the RNAGym collection of RNA variant scans (doi:10.1073/pnas.2313332121).
This sample holds only a part of the variants without activity.

B1: TPR 5TU (parent)
chain: GGAUCUUCUCGAUCUAACAAAAAAGACAAAUCUGCCACAAAGCUUGAGAGCAUCUUCGGAUGCAGAGGCGGCAGCCUUCGGUGGCGCGAUAGCGCCAACGUUCUCAACUAUGACACGCAAAACGCGUGCUCCGUUGAAUGGAGUUUAUCAUG

Variants of: B1
Test: polymerase ribozyme fitness, log enrichment relative to wild type (log ratio); higher = more active; in vitro selection for triplet polymerase activity
How it was run: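 Mutant libraries of both subunits of a heterodimeric triplet polymerase ribozyme were PCR-built, transcribed, and selected once in triplicate, with frozen incubation at −7 °C and capture of gel-excised extended constructs on streptavidin beads before RT-PCR. Illumina sequencing of input and output libraries was filtered to genotypes with ≥10 input reads and ≥1 read per output. Fitness is the logarithm of genotype enrichment over wild-type enrichment, using inverse-variance-weighted replicate averages. The logarithm is base 2.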
With GGAUCCUCUCGAUCUAACAAAAAAGACAAAUCUGCCACAAAGCUUGAGAGCAUCUCCGGAUGCAGAGGCGGCAGCCUUCGGUGGCGCGCUAGCGCCAACGUUCUCAACUAUGACACGCAAUACGCGUGCUCCGUUGAAUGGAGUUUAUCAUG the “polymerase ribozyme fitness (log ratio)” value was -2.59. With GGAUCCUCACGAUCUAACAAAAAAGACAAUUCUGCCACAAAGCUUGAGUGCAUCUUCGGAUGCAGAGGCGGCAGCCUUCGGUGGUGCGAUAGCGCCAACGUUCUCAACUAUGACACGCAAAACGCGUGCUCCGUUGAAUGGAGUUCAUCAUG the “polymerase ribozyme fitness (log ratio)” value was at most -4.2. In the case of GGAUCCUCUCGAUCUAACAAAAAAGACAAAUCUGCCACAAAGCUUGAGAGCAUCUUCGGAUGCAGAGGCGGCAGCCUUCGGUGGCGAGAUAGCGCCAACGUUCUCAACUAUGACACGCAAAACGCGUGCUCCGUUGAAUGGAGUUUAUCAUG, the “polymerase ribozyme fitness (log ratio)” value is reported as at most -4.2. For GGAUCCUCUCGAUCUAACAAAAAAGACAAAUCUGCCACAAAGCUUGAGAGCAUCUUCGGAUGCAGAGGCGGCAGCCUUCGGUGGCGUGAUAGCGCCAACGUUCUCAACUAUGACACGCAAAACGCGUGCUCCGUUGAAUGGAGUUUAUCAUG, the “polymerase ribozyme fitness (log ratio)” value was -1.52. For GGAUCCUCUCGAUCUAACAAAAAAGACAAAUCUGCCACAAAGCUUGAGAGCAUCUUCGGAUGCAGAGGCGGCAGCCUUCGGUGGCGCGGUAGCGCUAACGUUCUCAACUAUGACACGCAAAACGCGUGCUCCGUCGAAUUGAGUUUAUCAUG, the “polymerase ribozyme fitness (log ratio)” value was at most -4.2. With GGAUCCUCUCGAUCUAACAAAAAAGACAAAUCUGCCACAAAGCUUGAGAGCAUCGUCGGAUGCAGAGGCGGCAGCCUUCGGUGGCGCGAUAGCGCCAACGUUCUCAACUAUGACACGCAAAACGCGUGCUCAGUUGAGUGGAGUUUAUCAUG the “polymerase ribozyme fitness (log ratio)” value was at most -4.2. With GGAUCCUCUCGAUCUAACAAAAAAGACAAAUCUGCCACAAAGCUUGAGAGCAUCUUCGGAUGCAGAGGCGGCAGCCUUCGGUGGCGCGAUAGCGCCAACGUUCUGAACUAUGACACGCAAAACGCGUGCUCCGUUGAAUGGAGCUUAUCAUA the “polymerase ribozyme fitness (log ratio)” value was -3.94. For GGAUCCUCUCGAGCUAACAAAAAAGACAAAUCUGCCACAAAGGUUGAGAGCAUCUUCGGAUGCAGAGGCGGCAGCUUUCGGUGGCGCGAAAGCGCCAACGUUCUCAACUAUGACACGCAAAACGCGUGCUCCGUUGAAUGGAGUUUAUCAGG, the “polymerase ribozyme fitness (log ratio)” value was at most -4.2. With GGAUCCUCUCGAUCUAACAAAAAAGACAAAUCUGCCACAAAGCUUGAGAGCAUCUUCGGAUGUAGAGGCGGCAGCCUUCGGUGGCGCGAUAGCGCCAACGUUCUCAACUAUGACACGCAAAACGCGUGCUCCGUUGAGUGGAGUUUAUCAUG the “polymerase ribozyme fitness (log ratio)” value was -4.08. For GGAUCCUCUCCAUCUCACAAAAAAGACAAAUCUGCCACAAAGCUUGAGAGCAUCUUCCGAUGCAGAGGCGGCAGCCUUCGGUGGCGCGAUAGCGCCAACGUUCUCAACUAUGACACGCAAAACGCGUGCUCCGUUGAAUGGCGUUUAUCAUG, the “polymerase ribozyme fitness (log ratio)” value was -3.7. For GGAUCCGCUCGAUCUAACAAAAAAGACAAAUCUGCCACAAAGCUUGAGGGCAUCUUCGGAUGCAGCGGCGGCAACCUUCGGUGGCGCGAUAGCGCGAACGUUCUCAACUAUGACACGCAAAACGCGUGCUCCGUUGAAUGGAGUUUAUCAUG, the “polymerase ribozyme fitness (log ratio)” value was at most -4.2. With GGAUCCUCUCGAUCUAACAAAAAAGACAAAUCUGCCACAAAGCUUGAGAGCAUCUUCGGAUGCAGAGGCGGCAGCCUUCGGUGGCGCGAUAGCGCCAACGUUCUCAACUAUGACACGCAAAACGCGUGGUCCGUUGAAUGGAGUUUAUCAUG the “polymerase ribozyme fitness (log ratio)” value was -3.13. In the case of GGAUCCUCUCGAUCUAACAAAAAAGACAAAUAUGCCACAAAGCUUGAGUGCAUCUUCGGAUGCAGAGGCUGCAGCCUUCGGGGGCGUGAUAGCGCCAACGUUCUGAACUAUGACACGCAAAACGCGUGCUCCGUUGAAUGGAGUUUAUCAUG, the “polymerase ribozyme fitness (log ratio)” value is reported as at most -4.2. In the case of GGAUCCUCUCGAUCUAACAAAAAAGACAAAUCUGCCACAAAGCUUGAGAGCAUCUUCGGAUGCAGAGGCGGCUGCCUUCGGUGACGCGAUAGCGCCAACUUUCUCAACUAUGACACGCAAAACAGGUGCUCCGUUGAAUGGAGUGUAUCAUG, the “polymerase ribozyme fitness (log ratio)” value is reported as at most -4.2. For GGAUCCUCUUGAUCUAACACAAAAGACAAAUCUGCCACAAAGCUUGAGAGCAUCUUCGGAUGCAGAGGCGGCAGCCUUCGGUGGCGCGAUAGCGCCAACGUUCUCAACUAUGACACGCAAACCGCGUGCUCCGUUGAAUGGAGUUUAUCAUG, the “polymerase ribozyme fitness (log ratio)” value was at most -4.2. For GGAUCCUCUCGAUCUAACAAAAAAGAUAAAUCUGCCACAAAGCUUGAGAGCAUCUUCGGAUGCAGAGGCGGCAGCCUUCGGUGGCGCGAUAGCGCCAACGUUCUCAACUAUGACACGCAAAACGCGUGCUCCGUUGAAUGGAGUCUAUCAUG, the “polymerase ribozyme fitness (log ratio)” value was -3.08. With GGAUCCUCUCGAUCUAACAAAAAAGACAAAUCUGCCACAAAGCUUGAGAGCAUCUUCGGAUGCAGAGGCGGCAGCCUUCGGUGGCGCGAUAGCGUCAUUGUUCUCAACUAUGACACGCAAAACGCGUGCUCCGUUGAAUGGAGUUUAUCAUG the “polymerase ribozyme fitness (log ratio)” value was -2.4. In the case of GGAUCCUCUCGAUCUAACAAAAAAGACAAAUCUGCCACAAAGCUUGAAAGCAUCUUCGGAUGCAGAGGCGGCAGCCUUCGGUGGCGCGAUAGCGCCAACGUUCUCGACUAUGACACGCAAAACGCGUGCUCCGUUGAAUGGAGUUUAUCAUG, the “polymerase ribozyme fitness (log ratio)” value is reported as -3.13. For GGAUCCUCUCAAUCUAACAAAAAAGACAAAUCUGCCGCAAAGCUUGAGAGCGUCUUCGGAUGCAGAGGCGGCAGCCUUCGGUGGCACGAUAGCGCCAACAUUCUCAACUAUGACACGCAAAACGCGUGCUCCGUUGAAUGGAGUUUAUCAUG, the “polymerase ribozyme fitness (log ratio)” value was at most -4.2. For GGAUCCUCUGGAUCUAACAAAAAAGACAAAUCUGCCACAAAGCUUGAGAGCAUCUUCGGAUGCAGAGGCGGCAGCCUUCGGUGGCGCGAUAGCGCCAACGUUCUCAACUAUGACACGCAAAACGCGUGCUCCGUUGAAUGGAGUUUAUCAUG, the “polymerase ribozyme fitness (log ratio)” value was -3.97. With GGAUCCUCUCGAUCUAACAAAAAAGACAAAUCUGCCACAAAGCUUGAGAGCAUCUUCGGAUGCAGAGGCGGCAGCCUUCGGUCGCGCGAUCGCGCCAACGUUCUCAACUAUGACACGCAAAACGCGUGCUCCGUUGAAUGGAGUCUAUCAUG the “polymerase ribozyme fitness (log ratio)” value was at most -4.2. For GGAUCCUCUCGAUCUAACAAAAAAGACAAAUCUGCCACAAAGCUUGAGAGCAUCUUCGGAAGCAGAGGCGGCCGCCUUCGGUGGGGCGAUAGCGCCAACGUUCUCAACUAUGACACGCAAAACGCGUGCUCCGUUGAAUGGAGUUUAUCAUG, the “polymerase ribozyme fitness (log ratio)” value was at most -4.2. With GGAUCCUCUCGACUUAACAAAAAAGACAAAUCUACCACAAAGCUUGAGAGCAUCUUCGGAUGCAGAGGCGGCAGCCUUCCGUGGCGCGAUGGCGCCAACGUUCUCAACUAUGACACGCAAAACGCGUGCUCCGUUGAAUGGAGUUUAUCAUG the “polymerase ribozyme fitness (log ratio)” value was at most -4.2. For GGAUCCUAUCGAUCUAACAAAAAAGACAAAUCUGCCACAAAGCUUGAGAGCAUCUUCGGAUGCAGAGGCGGCAGCCUUCGGUGGCGCGAUAGCGCCAACGUUCUCAACUAGGACACGCAAAACGCGUGCUCCGUUGAAUGGACUUUAUCAUG, the “polymerase ribozyme fitness (log ratio)” value was at most -4.2. In the case of GGAUCCUCUCGAUCUAACAAAAAAGACAAAUCUGCCACAAAGCUUGAGAGCAUCUUCGGAUGCAGAGGCGGCAGCCUUCGGUGGCGAUAUAGCGCAAACGUUCUCAACUAUGACACGCAUAAUGCGUGCUCCGUUGAAUGGAGUUUAUCAUG, the “polymerase ribozyme fitness (log ratio)” value is reported as at most -4.2. In the case of GGAUCCUCUCGAUCUAACAAAAAAGAUAAAUCUGCCACAAAGCUUGAGACCGUCUUCAGAUGCAGAGGCGGCAGCCUUCGGUGGCGUGAUAGCGCCAACGUUCUCAACUAUGACACGCAAAACGCGUGCUCCGUUGAAUGGAGUUUAUCAUG, the “polymerase ribozyme fitness (log ratio)” value is reported as at most -4.2. For GGAUCCUUUCGAUCGAACAAAAAAGACAAAUCUGCCACAAAGCUUGAGAGCAUCUUCGGAUGCAGAGGCGGCAGCCUUCGGUGGCGCGAUAGCGCCAACGUUCUCAACUAUGACACGCAAAACGCGUGCUCCGUUGAAUGGAGUUUAUCAUG, the “polymerase ribozyme fitness (log ratio)” value was -2.42. With GGAUCCUCUCGAUCUAACAAAAAAGACAAAUCUGCCACAAAGCUUGAGAGCAUGUUCGGAUGCAGAGGCGGCAGCCUUCGGUGGCGCGAUAGAGCCAACGUUCUCAACUAUGACAGGCAAAACGCGUGCUCCGUUGAAUGAAGUUUAUCAUG the “polymerase ribozyme fitness (log ratio)” value was -4.17. For GGAUCCUCUAGAUCUAACAAAAAUGACAAAUCUGCCACAAAGCUUGAGAGCAUCUUCGGAUGCAGAGGCGGCAGCCUUCGGUGGCGCGAUAGCGCCAACGUUCUCAACUGUGACACGCAAAACGCGUGCUCCGUUGAAUGGAGUUUAUCAUG, the “polymerase ribozyme fitness (log ratio)” value was at most -4.2. For GGAUCCUCUCGAUCUAACAAAAAAGACAAAUCUGCCACAAAGCUUGAGAGCAUCUUCGGAUGCAGAGGCGGCAGCCUUCGGUGGUGCGAUAGCGCCAACGUUCUCAACUAUGACACGCAAUACGCGUGCUCCGUCGAAUGGAGUUUAUCAUG, the “polymerase ribozyme fitness (log ratio)” value was -3.27. With GGAUCCUCUCGAUCUAACAAAAAAGACAAAUCGGCCACAAAGCUUGAGAGCAUCUCCGGAUGCAGAGGCGGCAGCCUUCGCUGGCGCGAUAGCGUCAACGUUCUCAACUAUGACACGCAAAACGCGUGCUCCGUUGAAUGGAGUUUAUCAUG the “polymerase ribozyme fitness (log ratio)” value was at most -4.2. In the case of GGAUCCUCUCGAUCUAACAAAAAAGACAAAUCUGCCACAAAGCUUGAGAGCAUUUUCGGAUGCAGAGGCGGCAGCUUUCGGUGGCGCGAUAGCGCCAACGUUCUCAACUAUGACACGCAAAACGCGUGCUCCGUUGAAUGGAGUUUAUCAUG, the “polymerase ribozyme fitness (log ratio)” value is reported as -2.15. For GGAUCCUCUCGAUCUAACAAAAAAGACAAAUCUGCCACAAAGCUUGAGAGCAUCUUCGGAUGCAGAGGCGGCAGCCUUCGGUGGCGCGAUAGCACCAACGUUCUUAACUAUGACACGCAAAACGCGAGCUCCGUUGAAUGGAGUUUAUCAUG, the “polymerase ribozyme fitness (log ratio)” value was at most -4.2. For GGAUCCUCUCGAUCUAACAAAAAAGACAAAGCUGCCACAAAGCUUGAGACCAUCUUCGGAUGCAGAGGGGGCAGCCUUCGGUGGCGCGAUAGCCCCAACGUUCUCAACUAUGACACGCUAAACGCGUGCUCCGUUGAAUGGAGUUUAUCAAG, the “polymerase ribozyme fitness (log ratio)” value was at most -4.2. With GGAUCCUCUCGAUUUAACAAAAAAGACAAAUCUGCCACAAAGCAUGAGAGCAUCUUCGGAUGCAGAGUCGGCAGCCUUCGGUGGCGCGAUAUCGCCAGGGUUCUCAACUAUGACACGCAAAACGCGUGCUCCGUUGAAUGGAGUUUAUCAUG the “polymerase ribozyme fitness (log ratio)” value was at most -4.2. For GGAUCCUCUCGAUCUAACAAAAAAGACAAAUCUGCCACAAAGCUUGAGAGCAUCUUCGGAUGCAGAGGCGGCAGCCUUCGGUGGCGCGAUAGGGCCAACGUUCUCAACUAUGACACGCAAAACGCGUGCUCCGUUGAAUGGAGUUUAUCAUG, the “polymerase ribozyme fitness (log ratio)” value was -3.54. In the case of GGAUCCUCUCGAUCUAACAAAAAAGACAAACCUGCCACAAAGCUUGAGAGCAUCUUAGGAUGCAGAGGCGGCAGCCUUCGGUGGCGCGAUAGCGCGAACGUUCUCAACUAUGACACGCAAAACGCGUGCUCCGUUGAAUGGAGUUUAUCAUG, the “polymerase ribozyme fitness (log ratio)” value is reported as -1.1. With GGAUCCUCUCGAUCUAACAAAAAAGACAAAUCUGCCAAAAAGCUUGAGAGCAUCUUCGUAUGCAGAGGAGGCAGCCUUCGGUGGCGCGAUAGCGCCAACGUUCUCAACUAUGACACGCAAAACGCGUGCUCCGUUGAAUGGAGUUUAUCAUG the “polymerase ribozyme fitness (log ratio)” value was -2.2.
